Reference: PMC5071372, “Combining biophysical methods to analyze the disulfide bond in SH2 domain of C-terminal Src kinase” (Biophysics Reports, 2016)
Entries after “also recorded” stand apart in the source; their conditions may differ.

B1: full-length Csk: C-terminal Src kinase, full length (protein, UniProt P41240 1-450, looked up)
chain: MSAIQAAWPSGTECIAKYNFHGTAEQDLPFCKGDVLTIVAVTKDPNWYKAKNKVGREGIIPANYVQKREGVKAGTKLSLMPWFHGKITREQAERLLYPPETGLFLVRESTNYPGDYTLCVSCDGKVEHYRIMYHASKLSIDEEVYFENLMQLVEHYTSDADGLCTRLIKPKVMEGTVAAQDEFYRSGWALNMKELKLLQTIGKGEFGDVMLGDYRGNKVAVKCIKNDATAQAFLAEASVMTQLRHSNLVQLLGVIVEEKGGLYIVTEYMAKGSLVDYLRSRGRSVLGGDCLLKFSLDVCEAMEYLEGNNFVHRDLAARNVLVSEDNVAKVSDFGLTKEASSTQDTGKLPVKWTAPEALREKKFSTKSDVWSFGILLWEIYSFGRVPYPRIPLKDVVPRVEKGYKMDAPDGCPPAVYEVMKNCWHLDAAMRPSFLQLREQLEHIKTHELHL
modifications: full-length
B2: oxidized L-SH2: human Csk SH2 domain with SH3–SH2 linker, residues A73–A178, disulfide oxidized (PDB 3EAC) (protein)
chain: AGTKLSLMPWFHGKITREQAERLLYPPETGLFLVRESTNYPGDYTLCVSCDGKVEHYRIMYHASKLSIDEEVYFENLMQLVEHYTSDADGLCTRLIKPKVMEGTVA
modifications: disulfide bond C122–C164; left off: intein, end not stated, cleaved
B3: reduced L-SH2: human Csk SH2 domain with SH3–SH2 linker, residues A73–A178, reduced form (protein)
chain: B2 chain
modifications: left off: intein, end not stated, cleaved
notes: human Csk SH2 domain with SH3–SH2 linker, residues A73–A178, reduced form

Assays:
full-length Csk = conditions: ref Mills et al. [2007], cited from earlier work
Source text: Disulfide bonds are mostly found in secretory proteins and in extracellular domains of membrane proteins. Cytosolic proteins, which contain cysteine residues that are in close proximity to each other, may function as oxidation sensors; when the reductive potential of the cell fails, they oxidize and trigger cellular response mechanisms (Sevier and Kaiser [2002]). Mills et al. studied the unique disulfide bond of Csk SH2 that is absent in other known SH2 domains.

[1] = Guanidine hydrochloride-induced unfolding monitored by tryptophan fluorescence; type: physicochemical; conditions: guanidine hydrochloride 0 to 6 mol/L, two-state linear extrapolation to H2O
Method: Intrinsic fluorescence of oxidized and reduced form of L-SH2 domain, as well as that of the cysteine mutants C122S and C164S L-SH2, was measured to examine the role of the disulfide bond in the stability of the Csk SH2 domain. […] The thermodynamic stability of these oxidized and reduced L-SH2 domains, as well as that of the mutants at equilibrium, were characterized by determining the free energy of unfolding by using guanidine hydrochloride-induced unfolding experiments monitored by tryptophan fluorescence (Fig. 4A). The curves were fitted using the linear extrapolation model to obtain the ∆G for unfolding in H2O (Santoro and Bolen [1988]). […]
Fluorescence titrations were performed at 25 °C in 3 mL of 50 mmol/L Tris-HCl (pH 7.5) using excitation and emission wavelengths of 288 nm and 320 nm, respectively. […] The concentrations of guanidine hydrochloride of the solutions were determined by measuring the index of refraction and by using the following equation: d/d 0 = 1 + 0.2710 W + 0.0330 W ^2 (Tanford et al. [1966]), where W is the weight fraction of guanidine hydrochloride in the solution, d is the density of the solution, and d 0 is the density of water. […] The signals were normalized to the fraction of unfolded species using the standard relation F unf = (I − I N)/(I U − I N), where N and U stand for the fluorescence intensity of the native and fully unfolded species, respectively. […]

Csk L-SH2 disulfide bond = assay: NMR-monitored reduction of oxidized SH2 by DTT; type: physicochemical, human; conditions: 10 mmol/L DTT, 50 mmol/L Tris-HCl pH 7.5, 1.0 mmol/L EDTA, 0.01% NaN3, 5% D2O, 298 K, NMR peak intensity
Source text: During purification of the Csk L-SH2 domain, 50 mmol/L DTT was used to elute the protein from the chitin resin. The L-SH2 was used in reduced form, given that DTT was used to cleave L-SH2 from its intein fusion partner. Following elution of the protein from the ion exchange column, the L-SH2 became a mixture of the reduced and oxidized forms. The fully oxidized form was obtained by exposing the protein to air for several days.
Fig. 3 Comparison of the oxidized and reduced form of SH2. A Comparison of ^1H–^15N HSQC of oxidized (red) and reduced (green) SH2. B Combined chemical shift change of oxidized and reduced form SH2. The difference was calculated as ∆δ tot = [(∆δ H)^2 + (0.154∆δ N)^2]^1/2. […]
All NMR experiments were performed at 298 K on 800 MHz spectrometers equipped with triple-resonance cryoprobes. […] The combined change in chemical shift of a particular residue upon ligation with the kinase domain was calculated as ∆δ = [(∆δ H)^2 + (0.154∆δ N)^2]^1/2, where ∆δ H and ∆δ N correspond to the changes in amide proton and nitrogen chemical shift, respectively. The weight factor for ^1H and ^15N is determined from the ratio of the average variances of the amide nitrogen and proton chemical shifts observed for the 20 common amino acid residues in proteins deposited in the BioMagResBank (Mulder et al. [1999]). […]

Molecule	kinase activity upon formation of the disulfide bond in the SH2 domain (full-length Csk; full-length Csk)	kinase activity on prevention of the reduction of disulfide bond (full-length Csk; restored upon re-introduction of reducing agent)	free energy of unfolding ΔG U,W^0 [1] [kcal/mol]	t1/2 of the reduction reaction (Csk L-SH2 disulfide bond) [h]
B1	decreases by an order of magnitude; also recorded: reduced by an order of magnitude	tenfold reduction in kinase activity	–	–
B2	–	–	10.1 ± 0.382	2.6 ± 0.1
B3	–	–	6.57 ± 0.17	–
